Measurements from patent publication US20090191217A1 (published 2009).
Residue numbers refer to the chain shown, from its start.

T1: Interleukin-1 receptor type 1 (IL-1R1) on cells (human, UniProt P14778 18-569)
T1 sequence (looked up): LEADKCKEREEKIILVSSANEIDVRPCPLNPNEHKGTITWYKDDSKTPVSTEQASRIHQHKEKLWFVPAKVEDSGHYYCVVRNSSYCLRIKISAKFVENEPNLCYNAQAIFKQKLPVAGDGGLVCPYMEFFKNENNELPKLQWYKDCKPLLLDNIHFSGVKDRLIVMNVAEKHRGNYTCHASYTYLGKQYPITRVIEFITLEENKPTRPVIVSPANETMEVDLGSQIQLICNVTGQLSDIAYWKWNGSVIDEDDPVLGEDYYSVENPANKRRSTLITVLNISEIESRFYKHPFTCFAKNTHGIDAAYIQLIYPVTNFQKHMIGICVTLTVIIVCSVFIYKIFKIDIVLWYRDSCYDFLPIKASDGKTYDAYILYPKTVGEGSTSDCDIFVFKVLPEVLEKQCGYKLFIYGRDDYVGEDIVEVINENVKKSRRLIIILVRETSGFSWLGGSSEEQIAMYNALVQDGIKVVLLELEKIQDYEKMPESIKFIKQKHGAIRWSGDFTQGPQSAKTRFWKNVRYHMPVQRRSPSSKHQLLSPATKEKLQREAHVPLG

B1: DOM4-122-23 (other)
VL: DIQMTQSPSSLSASVGDRVTITCRASQWIGRELRWYQQKPGKAPMFLIYHASRLQRGVPSRFSGSGSGTDFTLTISSLQPEDFATYYCQQYHGWPLTFGQGTKVEIKR
B2: DOM4-122-6 (other)
VL: B1 VL with R56S
B3: DOM4-129-1 (other)
VL: B1 VL with W28N, G30D, G93D, W94F
B4: DOM4-130-3 (other)
VL: DIQMTQSPSSLSASVGDRVTITCRASQDIYLNLDWYQQKPGKAPKLLIYGTSNLQSGVPSRFSGSGSGTDFTLTISSLQPEDFATYYCQPSFYFPYTFGQGTKVEIRR
B5: DOM4-130-46 (other)
VL: B4 VL with Y49N, G50F, T51G, N53E

Target: T1, Interleukin-1 receptor type 1 (IL-1R1) …
Assay: cell-based or functional assay

Row | Binder | ND50, inhibition of IL-1-induced IL-8 release from MRC-5 cells [nM]
1 | B1 | ~1
2 | B2 | ~10
3 | B3 | ~10
4 | B4 | ~30
5 | B5 | ~1
